One block for each substance: values may come before it.
How the values were obtained:
[1] = target: hHsp70 (Homo sapiens) (UniProt P0DMV8); experiment: SPR; conditions: cited from earlier work
[2] = tested on: Nc1ncnc2c1ncn2[C@@H]1O[C@H](COP(=O)(O)OP(=O)(O)OP(=O)(O)O)[C@@H](O)[C@H]1O; experiment: purified protein; conditions: basal ATPase, buffer presumably as for PfHsp70-z (pH 7.5, MgCl2), kcat unit as printed
[3] = target: Plasmodium falciparum Hsp70-z (PfHsp70-z), recombinant (His)6-PfHsp70-z (Plasmodium falciparum); experiment: SPR; ProteOn XPR36, GLC chip, ligand immobilised by amine coupling (PfHsp70-z, 187 RU); analyte 125-2000 nM at 50 ul/min; 25°C; PBS-Tween with 20 mM EDTA, pH 7.4; with 5 mM ATP; Langmuir model
[4] = target: Plasmodium falciparum Hsp70-z (PfHsp70-z), recombinant (His)6-PfHsp70-z (Plasmodium falciparum); experiment: SPR; ProteOn XPR36, GLC chip, ligand immobilised by amine coupling (PfHsp70-z, 187 RU); analyte 125-2000 nM at 50 ul/min; 25°C; PBS-Tween with 20 mM EDTA, pH 7.4; with 5 mM ADP; Langmuir model
[5] = target: Plasmodium falciparum Hsp70-z (PfHsp70-z), recombinant (His)6-PfHsp70-z (Plasmodium falciparum); experiment: SPR; ProteOn XPR36, GLC chip, ligand immobilised by amine coupling (PfHsp70-z, 187 RU); analyte 125-2000 nM at 50 ul/min; 25°C; PBS-Tween with 20 mM EDTA, pH 7.4; no nucleotide; Langmuir model

Chain of hHsp70 (P0DMV8 2-641): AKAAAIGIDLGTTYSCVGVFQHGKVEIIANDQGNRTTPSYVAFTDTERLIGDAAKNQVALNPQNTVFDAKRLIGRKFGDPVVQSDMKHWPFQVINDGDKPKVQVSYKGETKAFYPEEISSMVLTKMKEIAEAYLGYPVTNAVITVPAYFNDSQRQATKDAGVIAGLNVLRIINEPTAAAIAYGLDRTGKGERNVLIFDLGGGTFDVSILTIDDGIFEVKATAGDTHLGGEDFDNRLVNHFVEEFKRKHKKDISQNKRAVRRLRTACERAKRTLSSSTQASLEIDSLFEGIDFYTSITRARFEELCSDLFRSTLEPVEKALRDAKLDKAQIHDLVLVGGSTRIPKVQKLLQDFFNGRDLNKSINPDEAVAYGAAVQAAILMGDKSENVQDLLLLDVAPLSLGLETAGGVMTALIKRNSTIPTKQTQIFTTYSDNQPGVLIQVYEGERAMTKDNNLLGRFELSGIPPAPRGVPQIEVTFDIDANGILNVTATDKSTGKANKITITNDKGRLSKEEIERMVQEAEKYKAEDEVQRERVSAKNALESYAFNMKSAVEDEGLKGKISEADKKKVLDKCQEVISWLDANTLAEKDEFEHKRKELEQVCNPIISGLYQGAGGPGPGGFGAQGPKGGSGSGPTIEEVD

Substance: hHsp70 (from UniProt P0DMV8)
Kd [1]: 4.5 nM

Substance: PfHsp70-1 (Plasmodium falciparum 3D7)
Km [2]: 428 (+/- 5) μM
Vmax [2]: 0.0246 µmol/min/mg

Kd [3]: 11.3 nM
koff [3]: 3.2e-05 s⁻¹
kon [3]: 2840 M⁻¹ s⁻¹
Kd [4]: 11.5 nM
koff [4]: 7.6e-05 s⁻¹
kon [4]: 6620 M⁻¹ s⁻¹
Kd [5]: 7.97 nM
koff [5]: 9.54e-05 s⁻¹
kon [5]: 12000 M⁻¹ s⁻¹
Substance: Plasmodium falciparum Hsp70-z (PfHsp70-z), recombinant (His)6-PfHsp70-z (natural protein)

— PMC4471362
